{
  "source": "the DeepSol protein solubility set",
  "data": [
    {"assay": "soluble on expression in E. coli; label from the status in PepcDB or PDB records", "values": [
      {"sequence": "MKKVLIVLLVLLTSFGFSENLDKYESKRVFDKSIQFILDGNYEKLKNDTEMSRVAGNITDAAEAIFAKARPMLKEHKYKVIDVKEKKDISELTVKVEYKVYENVSQEESENFMIKFQEELDEETEEAADIYDKKVQKLLQDNIKSKGIIKDKIIKVYMDKEYGYWDLATDKNEDLLLTLFSVIDSLGLY", "soluble on expression in E. coli": "not soluble"},
      {"sequence": "MKKYSILLLPFILASCAPVSESQFTEQRLSELEIKVAKLEERQEKIEEQLEEINKRLDYITKSIAKREIKSYKEPEEEKPPFEEVKSTEDEKAEYENALELYKMKQLNEARDAFVEFIKKYPNSKYTDNAYFWLGKTFYELGNTERAKQIFNVLIKKCKSGELPDCNKLPDTYFMLVKISLDEGNIEEANRYLSILEEKFPDAEATQRAKELIYKTP", "soluble on expression in E. coli": "not soluble"},
      {"sequence": "MKLANTKGERKLEQKLYYTDAYKQDFTTKVIKQDYDKDGNLYVILNETVFYPTGGGQPHDTGTLNGIAVLGVEEVDEEIRHFIAEQLHTEEVEGKINWERRFDHMQQHAAQHILSAAFWDYFNIPTIGFHLGKETVTIDLETENLHAETVEKAVQIANKIVFENHPILIKWMNLEEAKTLPLRKEPTMTENIRVVMIENFDYNGCGGTHPKRTGEVGPIQVLGWERNKGGIRLTFIAGWRTLKLMGQQQQIMKDVSKQLNSSEADIPAKVAQLLTSQKENKKAMQTMTEKLLYTEANELLQQPTKIHAGILISKVFTNRSMQEIAKLSAIITEQQEHAITYFVIENEDKLQCILACGKTVTLDMNALLKEALPTIEGKGGGNKKSARGGGKAMMSGDEFLNQLISSLQSAV", "soluble on expression in E. coli": "not soluble"},
      {"sequence": "MKLASPKPFTFEGGDRAVLLLHGFTGNSADVRMLGRFLEKKGYTCHAPIYKGHGVPPEELVHTGPEDWWQDVTEAYQLLKDKGFEKIAVVGLSLGGVFSLKLGYTVPVLGVVPMCAPMYIKSEETMYQGILAYAREYKKREQKSPEQIEQEMLEFQKTPMNTLKALQQLIADVRNNVDMIYVPTFVVQARHDEMINTDSANIIYNGVESTLKDIKWYEDSTHVITLDKQRDELHEDVYNFLEQLDW", "soluble on expression in E. coli": "not soluble"},
      {"sequence": "MKLDFSSGAKPLWSQMANIIKKRIEDGEYEIGCTLPSEMSFADEFNVSRITVRQALNRLMTDGYILRQRGKGTIVKRDKTSFSTRMQSSFKQLQDEYDKTTKTLISVNNVKASEDVAEVFDINPGDNVIMLERSVESKGKIITIYHNYISPKVGASLKDDFTGSFYKYLEMKGFYITSAKEVISAKISTAKDKEVFGFSNDRAMLLKTKYGYSDGVPVEITYGTYIADDYNIVIELV", "soluble on expression in E. coli": "not soluble"},
      {"sequence": "MKLEDLPKYYSPKSPGLTDASASTSKDALSITDVMAAQGMTQNRAEMGFSAFLGKMGISMNDRARATELLADYALSRCDRVAALRKLPAEIKPVVMRIMASYAFEDYARSAASKKQCPCCYGEKFIESVVFTNKVQYPDGKPPVWAKCTKGVYPSYWEEWKKVREVVKVACPECGGKGEVSTACKDCRGRGVAIHREESVKRGMPVIRDCQRCGGRGYERLPSTEVFNAICEVTNQITRASWEKTVKKFYDALVTRFDIEEAWAERQLKKVTR", "soluble on expression in E. coli": "not soluble"},
      {"sequence": "MKLHEHQAKEIFAKYGIPVPEGKVAFSLKEAKEVAEELGEFPLVVKAQIHCGGRGKAGGVKIVKDMDELEKAVESLLGKVLKTFQCPDGKPVNRVLIEKATNIDKEYYLAITLDRSKSKPVIMASAAGGMEIEEIVKENPEAIIIETIDPELGLMPYQARELAFKLNLPVKEFASIALKLYQIYSDLDASLVEINPLVLTKEGNLIALDAKLDIDDNALFRHKDLEEMEDETQLPQLEVEAKKYGLNYIKLNGNIGCMVNGAGLAMATMDIIKLAGGEPANFLDVGGGANVEQIANAFRILMADPDVKAVFINIFGGILRVDRLAQGLIEASKMVELRVPIVARLEGTNVEEGKRMLQESGLNFIIAEDMWDGAKKAVEIANKQS", "soluble on expression in E. coli": "soluble"},
      {"sequence": "MKLIVAVVQDQDSNRLLKTLTDHNFRVTKLATTGGFLKSGNTTFMIGVEDIRVNKALSLIKENGQKRDQMIAPVSPMGGNADSYVPYPVEVEVGGATVFVLPVDEFHQFLEHHHHHH", "soluble on expression in E. coli": "soluble"},
      {"sequence": "MKLIVKVFPEITIKSPPVRKKFIRQLGKNIRTVLRELDADIVVGGVWDNLEVETRLTDPKVLQGIRDRLSCMPGIANFLQVAEYPLGDMDDVVAKCKLHYADLLPGTMFSVRCKRAGRHDFSSMDVEKYVGSQLRMQCGAAGIELKKPDLVVRMEIRDQRLFVVHDQHKGMGGYPLGALEQTLVLMSGGFDSTVAAYQIMRRGLMAHFCFFNLGGRAHELGVMEVAHFIWKKYGSSQRVLFVSVPFEEVLGEILQKVDNSHMGVVLKRMMLRAASAVADRLEIDVLVTGEAISQVASQTLPNLSLIDAATDKLVLRPLVATHKQDIVDLATEIGTADFARHMPEYCGVISVNPKTNAKRNRVEYEEQQFDMAILEQALERAKLVSIDRVIDDLSRNIDIEEVSQALAGQVIIDIRHPDAQEDQPLQVPGVEIQTLPFYALNSRFKALDDTRQYLLYCDKGVMSRLHAHHLLSEGHANVRVYRPS", "soluble on expression in E. coli": "not soluble"},
      {"sequence": "MKLKELVKQFIPMNYWNTRRKASIIRQQGKVADFWAPILKAYYNGEIERYSLKPKKKLGTQKVIWQYWGQGIDKDELPEIIQICFDSVDRNKNDYQVIRLTDITISEYIDLPDFVWRKREYVQFTRTFFSDLLRVALLSTYGGVWLDATILLTGSIPAVYEKTDFFMYQRSDEEKNKKYWENVYAYYFGWEPNFKVRMLSSILFAQKESEIISTLTDLLLYFWKTQDSLPDYFCFQILFNELVANYRPAENCPIVNDCIPHIIQTKINGTYDDVSFEEALELSNIHKMTYFDAAAMIRLKMVLRLARNALEHHHHHH", "soluble on expression in E. coli": "soluble"},
      {"sequence": "MKLKLYLIPLLASGIILSACSSTTSQVISSLSSAQKYFEANKGELNKNNVINILKDGYNSDPNKTVNALLAGWKYTLMDQKLLENNLDPSRFKNTFGPNKNKDDVTPNISEKGLFLNETFTGLGSQIAEVFNVQKQIVSGFSYSWTSPKSFKVNIHIKMEGMINEKSKETIKSFLSNKDSNGSNSVEESEYTGDKAKFTADFIFSYTPPTGGTRSLTDKSFDVITNMINFPADVKIDVNTSHNKLNELLEKNDQVKRMKSRTFNGRNIDLLPFFYYALL", "soluble on expression in E. coli": "soluble"},
      {"sequence": "MKLLFTSAFTQMFGYSNHMDQASNCQSTRNKIIKMMKKEEFPSGFQVPLHYPKYSKSDYEVMDDLRLDLLLKQYGFSFEGSLEDKRVFAIESFLWPDQL", "soluble on expression in E. coli": "soluble"},
      {"sequence": "MKLLRYGPVGEERPALLDELGEIRDLSAHIEDISGKFLLPATLYKLRQLDSASLPLVRGEQRLGACVGHVGKFICVGLNYADHAAETGAEIPQEPVIFNKWTSAIIGPNDDIEIPRNSVKTDWEVELGVVIGTGGRYIGEANAMSYVAGYCVVNDISEREFQLEHGGTWDKGKGCDTFGPIGPWLVTRDEIPDPHQLGLWLDVDGRRYQNGSTRTMIFKIPQIISYLSRFMSLQSGDVISTGTPPGVGLGQKPPVYLHAGQIMRLGIEGLGEQCQKTIQA", "soluble on expression in E. coli": "not soluble"},
      {"sequence": "MKLLSSIEQACDICRLKKLKCSKEKPKCAKCLKNNWECRYSPKTKRSPLTRAHLTEVESRLERLEF", "soluble on expression in E. coli": "soluble"},
      {"sequence": "MKLNAIHHVAIIVSDYHLSKDFYVNKLGFEIIRENYRPDKHDYKLDLSCGRIELEIFGKVTSDPNYQAPPKRVSEPEFKSEACGLRHLAFRVTNIESYVDDLKSLGIPVEPIRHDDYTGEKMTFFFDPDGLPLELHE", "soluble on expression in E. coli": "not soluble"},
      {"sequence": "MKLNLITVSLATLVAAGAFPAHAGPQAHVVCGYHHTLGDDAIMMFGKANQAMWHDFFGNTHTDAVSTYQTLRAQPDTTCDNKADSSAYWAPSMKLPDGEIVNPAYQKTYYQSTNVAQYPLHPFPAGLELLAGDHHGTGPSSAITFLCANGKGYTNKVGEICGLRKAGDAVQFNIGIAFPNCWDGVNLKPTHSHNNAIYADHGKCSADYPVKIPTVNMNIAWVLPQISSLDTSKVELSMDPVMHGETREERWGSLYTAHADFMNGWTEDGAQFMTDLCMNQGLDCGTTVPYAYSKAEENTWVSSEDDKPHASVDTLYVQDDWTNGGRTQHPETLTLVKFKIPPLPANMDASLFKYRIRLFGGKTEANGADQIFFYPTSSDWHVSTVSWNNKPAINYRSDAVLYLDHSHEYRMVDVDKAVRKALAEGKTEISWYIGGDRQGNHYDFTPADSKQSLVLMLTGFKKTPELLEHHHHHH", "soluble on expression in E. coli": "not soluble"},
      {"sequence": "MKLPLFPLPICLLPEGYTQLRIFEPRYKRLVAESLKSGDGFGLCMTSEEVNTLYPIGTLVHIIDFETLSDGMLGVSIEGKQRFILGDISVESDGLKRAQINLIDNWPAAPIHENEHYLSDMLQNILKEYPKHLQQYQAAQFDDIAWVCQRWLEILPIRSAEKYTCINALDHQLTLDLLRTVIKLEHHHHHH", "soluble on expression in E. coli": "soluble"},
      {"sequence": "MKLSKDTIAILKNFASINSGILLSQGKFIMTRAVNGTTYAEANISDEIDFDVALYDLNSFLSILSLVSDDAEISMHTDGNIKIADTRSTVYWPAADKSTIVFPNKPIQFPVASVITEIKAEDLQQLLRVSRGLQIDTIAITNKDGKIVINGYNKVEDSGLTRPKYSLTLTDYDGSNNFNFVINMANMKIQPGNYKVMLWGAGDKVAAKFESSQVSYVIAMEADSTHDF", "soluble on expression in E. coli": "soluble"},
      {"sequence": "MKLSKDTTALLKNFATINSGIMLKSGQFIMTRAVNGTTYAEANISDVIDFDVAIYDLNGFLGILSLVNDDAEISQSEDGNIKIADARSTIFWPAADPSTVVAPNKPIPFPVASAVTEIKAEDLQQLLRVSRGLQIDTIAITVKEGKIVINGFNKVEDSALTRVKYSLTLGDYDGENTFNFIINMANMKMQPGNYKLLLWAKGKQGAAKFEGEHANYVVALEADSTHDF", "soluble on expression in E. coli": "soluble"},
      {"sequence": "MKLTLMFREYCSLCHKMRDELKPFQDEYGFGLEVVDVDENPVLEEKYNELVPVLLAGDEEICHWFLDEDRLKQFLER", "soluble on expression in E. coli": "not soluble"},
      {"sequence": "MKLTPEMLTGKSREHLVNLPTTHSSNHFLQTQAVQAFQALQQSAAKNGFNLQPASSFRDFERQQLIWNSKFKGERKVHDDAGKALDLNQLDDWQKCQAILRWSALLRLVVIIGERKWIFLILIFCHEVNLYNWSLGNMKKAATSLN", "soluble on expression in E. coli": "not soluble"},
      {"sequence": "MKLVVCSESDTAGQNIKDNLLTFADFEEKDVGEFKLYLSDEFYIAETKERLIYADHIDEKLAKYIDFEEILFASRHSSKDGRKIFTVHVSGNVGTADFGGKPYSLAKPSPQTMKNYVLALRERLDRKPEFEFTMEVTHHGPSEISKPSAFYEIGSTEEEWKDREAAEVVAEAMLDAIRAEKMDWNVAVGVGGTHYAPRQTEIMLTTTFTFGHNFAKYTFEHLTAEFLVKAVKLSEAEYIIIDEKSVNSAVKKIVNEAAEVAGVEVLKSKKVKKDFRLV", "soluble on expression in E. coli": "soluble"},
      {"sequence": "MKMDTGALTFQQKIYWLVKQIPLGRVATYGQIAALCGWPRHGRYVGYALYRVAPNSDIPWHRVVNAQGKISYAPQRRGTDELQRWRLAAEGIIFTAGLEHHHHHH", "soluble on expression in E. coli": "not soluble"},
      {"sequence": "MKNNIRFDLSDYLIHFFRDVNLETGSHIYLPEHCGFNNQHHACFIDAKYLLRLSLRSHKIFSSWSYRNGQRTVYGDSPVVCFTDMPIAAYLETGVRRLERNEKIGLYAIVLPKEQMFNYGARPVIYGLDQHNNARCSQGRNGERILDETALPLIEQYRYVTYVPGKIDWTHEREWRWPYRGDINNFLNHIKEYGIPENIESTPGFDFRSSEISGAGIIVPFAEDIPTVAHDILTLIDRGVIGRNTFKFIIAVESLQSWTQLSEPGALLSCINDNTFEFESFFDLSASKVKNYADSINDYVSELYSKKDFLNDSYAMEFGNAWVWIHDNQSQVVRALLQAGMIKVNKEGRYLLDVNLASVDWPLRRKEAFASHVAGWLKHRFDIEAGRYSVRGKDDYDAIPSYETPLKDQHPFYNHTVNVDW", "soluble on expression in E. coli": "not soluble"}
    ]}
  ]
}
